Measurements taken from patent US20210171611A1 (SEOUL NATIONAL UNIVERSITY R AND DB FOUNDATION, published 2021).

Target: T1, recombinant SFTS virus glycoprotein Gn fused to human Ig k-chain constant region (severe fever with thrombocytopenia …, UniProt P01834 1-107)
T1 construct: also called Gn-Ck
Test: ELISA on recombinant glycoprotein (Gn-Ck coated, Example 5)

B1: Ab10 scFv (scFv)
scFv: ELVMTQSPSSLSASVGDTVTITCRASQSIYTYLNWYHQTPGKAPKLLISAASSLQSGVPSRFSGSGSGTDFTLTISSLQPEDFATYYCQQYADVPVTFGGGTKLEIKGGSSRSSSSGGGGSGGGGEVQLVESGGGVVQPGRSLRLSCAASGFTFSGYGIHWVRQAPGKGLEWVALISYDGSNKYYADSVKGRFTISRDNSKNTLYLQMNSLRAEDTAVYYCAKDRDYFGSGFFDYWGQGTLVTVSS
binding result: binds

B2: Ab8 scFv (scFv)
scFv: ELALTQPPSVSVAPAMTAKITCGGDDIGSTTVQWYQQTSGQAPVLVVYDDSDRPSGIPERFSGANSGNTATLTISRVEAGDEADYYCQVWDGRSDHVVFGGGTKLTVLGGGSSRSSSSGGGGSGGGGQVQLVQSGAEVKKPGESLKISCKGSGYIFTNYWIGWVRQMPGKGLEWMGIIYPGDSDTRYSPSFQGQVTISADRSISTANLQWSSLKASDTALYYCARLKLRGFSGGYGSGRRYFDYWGQGTLVTVSS
binding result: binds

B3: Ab9 scFv (scFv)
scFv: ELELTQPPSVSGTPGKRVSMSCSGSRSNIGGNVVNWYQQLPGKAPKLFIYNNDQRPSGVPDRVSGSKSGTSVSVAISGLQPEDEADYYCAAWDDILNGVVFGGGTQLTVLGGGSSRSSSSGGGGSGGGGQVQLVQSGAEVKKPGESLKISCKGSGYNFTNYWIGWVRQLPGKGLEWMGIIYPGDSDTRYSPSFQGQVTISADKSISTAYLQWSSLKASDTAMYYCARIRVIGFYDSSPPPLFDYWGQGTLVTVSS
binding result: binds
